In the supplement of paper PMC7125110:
± gives the standard error. For some assays here: Fewer inactive variants are shown than the library holds.

B1: glmS ribozyme (parent)
chain: AUAAAAGCGCCAGAACUACAGAAAUGUAGUUGACGAGGAGGAGGUUUAUCGAAUUUUCGGCGGAUGCCUCCAAA

Columns and labels:
Conditions in all cases: with glucosamine-6-phosphate
[1] = variants of: B1; assay: self-cleavage kobs at 40 uM GlcN6P; higher = faster cleavage; RNA array
Outline: (§1)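 Glucosamine-6-phosphate, from 40 μM to 10 mM in HEPES/KCl/Mg(OAc)2 buffer, was flowed over sequenced MiSeq chips carrying barcoded ribozyme variants transcribed in situ by E. coli RNA polymerase. A hybridised Cy3 probe tracked the variants at 37 °C as tiles were imaged over ~14 h. kobs, kcat and KM were obtained by fitting normalised per-tile medians to exponential decays and then applying weighted Michaelis–Menten fits across concentrations.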

[2] = variants of: B1; assay: kcat; higher = faster cleavage; RNA array
Outline: as §1

[3] = variants of: B1; assay: self-cleavage kobs at 640 uM GlcN6P; higher = faster cleavage; RNA array
Outline: as §1

[4] = variants of: B1; assay: KM; higher = weaker cofactor use; RNA array
Outline: as §1

[5] = variants of: B1; assay: self-cleavage kobs at 2500 uM GlcN6P; higher = faster cleavage; RNA array
Outline: as §1

[6] = variants of: B1; assay: self-cleavage kobs at 10000 uM GlcN6P; higher = faster cleavage; RNA array
Outline: as §1

[7] = variants of: B1; assay: self-cleavage kobs at 160 uM GlcN6P; higher = faster cleavage; RNA array
Outline: as §1

Row | Variant | self-cleavage kobs at 40 uM GlcN6P [1] [s⁻¹] | kcat [2] [s⁻¹] | self-cleavage kobs at 640 uM GlcN6P [3] [s⁻¹] | KM [4] [µM] | self-cleavage kobs at 2500 uM GlcN6P [5] [s⁻¹] | self-cleavage kobs at 10000 uM GlcN6P [6] [s⁻¹] | self-cleavage kobs at 160 uM GlcN6P [7] [s⁻¹]
1 | A6G C10A G29U | < 1e-05 | – | – | – | – | – | –
2 | C68G C70U | – | 2.04e-05 ± 6.3e-06 | 3.32e-05 ± 1.3e-05 | – | – | – | –
3 | G66C C71G | – | 4.2e-05 ± 2.4e-06 | 4e-05 ± 1.4e-05 | 108 ± 50 | 4.07e-05 ± 1.1e-05 | 3.81e-05 ± 1.5e-05 | –
4 | A6C A12U G29A C68G | < 1e-05 | – | < 1e-05 | – | < 1e-05 | – | –
5 | G66A C68U | 0.000228 ± 2.5e-05 | 0.00532 ± 0.0011 | 0.00267 ± 0.00085 | 983 ± 280 | 0.00284 ± 0.00078 | 0.00549 ± 0.0008 | 0.000531 ± 0.00015
6 | U65C C70U | – | 0.000844 ± 0.0001 | 0.000169 ± 2.7e-05 | 2930 ± 550 | 0.000379 ± 7.6e-05 | 0.000647 ± 0.0001 | 3.71e-05 ± 1e-05
7 | A6C C11U | < 1e-05 | – | < 1e-05 | – | – | – | < 1e-05
8 | A6C C11A | < 1e-05 | – | – | – | < 1e-05 | – | < 1e-05
9 | A6C C10U U30G A52G | < 1e-05 | – | – | – | – | < 1e-05 | –
10 | U54G U56A G63U | – | – | – | 1560 ± 740 | – | – | –
11 | A6G A36C G51U | < 1e-05 | – | – | – | – | < 1e-05 | –
12 | A6C A36G A52G | < 1e-05 | – | – | – | < 1e-05 | < 1e-05 | –
13 | A64U U69C | – | 5.01e-05 ± 2.7e-06 | – | 1050 ± 310 | – | 4.48e-05 ± 1.3e-05 | –
14 | A64U U69G | – | 4.17e-05 ± 1.2e-05 | – | – | 5.01e-05 ± 1.9e-05 | – | 4.51e-05 ± 1.8e-05
15 | A39G C71U | 0.00144 ± 0.00017 | – | 0.00783 ± 0.0012 | 370 ± 140 | 0.0119 ± 0.0027 | 0.0284 ± 0.0069 | 0.00396 ± 0.00059
16 | A6C U49C | < 1e-05 | – | – | – | – | < 1e-05 | < 1e-05
17 | G37U U54C | – | – | – | 2230 ± 960 | – | – | –
18 | U65A C67A | 5.89e-05 ± 6.3e-06 | 9.68e-05 ± 1.3e-05 | 8.78e-05 ± 7.6e-06 | – | – | – | 9.4e-05 ± 8.1e-06
19 | U65C C68U | – | 2.26e-05 ± 1.2e-06 | – | 558 ± 230 | – | – | –
20 | A6G A42C C71U | < 1e-05 | – | < 1e-05 | – | – | – | –

Row | Variant | self-cleavage kobs at 40 uM GlcN6P [1] [s⁻¹] | kcat [2] [s⁻¹] | self-cleavage kobs at 640 uM GlcN6P [3] [s⁻¹] | KM [4] [µM] | self-cleavage kobs at 2500 uM GlcN6P [5] [s⁻¹] | self-cleavage kobs at 10000 uM GlcN6P [6] [s⁻¹] | self-cleavage kobs at 160 uM GlcN6P [7] [s⁻¹]
21 | U69A C70U | – | 6.79e-05 ± 5.4e-06 | 4.97e-05 ± 8.2e-06 | – | 7.15e-05 ± 7.1e-06 | 6.03e-05 ± 7.8e-06 | 3.52e-05 ± 1e-05
22 | U69A C70A | – | 3.8e-05 ± 4.6e-06 | – | – | 4.37e-05 ± 1.1e-05 | 3.27e-05 ± 9.4e-06 | –
23 | C71A | 0.00092 ± 0.0004 | 0.0153 ± 0.0014 | 0.00298 ± 0.00014 | 2490 ± 360 | 0.00761 ± 0.00039 | 0.0124 ± 0.0006 | 0.00104 ± 7.6e-05
24 | C71G | 0.000157 ± 1.8e-05 | 0.0034 ± 0.00063 | 0.000926 ± 4.6e-05 | 1460 ± 470 | 0.00218 ± 0.00013 | 0.00313 ± 0.00019 | 0.00041 ± 3.6e-05
25 | A6G A33U | < 1e-05 | – | < 1e-05 | – | < 1e-05 | – | < 1e-05
26 | A6G A33C | < 1e-05 | – | < 1e-05 | – | < 1e-05 | < 1e-05 | < 1e-05
27 | A6C C34A | < 1e-05 | – | < 1e-05 | – | < 1e-05 | < 1e-05 | < 1e-05
28 | G29A A64U | – | – | – | 593 ± 20 | – | – | –
29 | G62U C71A | < 1e-05 | < 1e-05 | – | – | < 1e-05 | – | –
30 | G62U U69A | – | 2.59e-05 ± 3.9e-06 | – | – | – | – | –
31 | U65A G66A | 3.95e-05 ± 1.7e-05 | 0.00068 ± 8.6e-05 | 0.000177 ± 2.8e-05 | 1640 ± 390 | 0.000442 ± 6.9e-05 | 0.000577 ± 7.2e-05 | 6.05e-05 ± 1.3e-05
32 | U65A C68A | – | 8.88e-05 ± 1.5e-05 | 8.74e-05 ± 1.1e-05 | – | 0.00015 ± 2.2e-05 | 7.53e-05 ± 8.6e-06 | 5.78e-05 ± 1.6e-05
33 | A6G A15G C71U | < 1e-05 | – | – | – | – | – | –
34 | A6C A12U U30A A48C | < 1e-05 | – | – | – | – | < 1e-05 | –
35 | A6G A14U U55G C68G | < 1e-05 | – | – | – | – | – | –
36 | C68A C71G | – | 2.77e-05 ± 1e-05 | – | – | 3.63e-05 ± 9.6e-06 | – | 3.29e-05 ± 1e-05
37 | C68A C71U | – | 1.62e-05 ± 4.6e-06 | – | – | 2.17e-05 ± 9.8e-06 | – | –
38 | U65G G66A | 4.28e-05 ± 9.4e-06 | 0.00234 ± 0.0003 | 0.000612 ± 0.0001 | 2300 ± 450 | 0.0013 ± 0.0002 | 0.00183 ± 0.00025 | 0.000131 ± 2.3e-05
39 | A6C C11G A12G C70U | < 1e-05 | – | – | – | – | – | –
40 | A64C C70U | < 1e-05 | 5.98e-05 ± 9.8e-07 | – | 1590 ± 110 | 3.63e-05 ± 9.6e-06 | 5.16e-05 ± 6.8e-06 | –
